Experimental data taken from US9090676B2, “Method for treating Helicobacter pylori infections” (priority 2006, dated 2015).
Entries after “also recorded” stand apart in the source; their conditions may differ.

What was measured:
[1] = system: gamma glutamyl transpeptidase of Helicobacter pylori (HPGGT); assay: GGT activity assay: inhibition of GGT by acivicin; type: biochemical
Method: (§1) The assay for GGT activity was adapted from the method of Meister et al.^27 Briefly, reaction buffer consisting of 20 mM glycyl-glycine (Sigma) as acceptor, 2.5 mM L-γ-glutamyl-p-nitroanilide (Calbiochem, Schwalbach, Germany) as donor substrate and 100 mM Tris-HCl (pH 8.0) was prepared. In some experiments pH of assay buffer was varied between 2 and 10. Supernatants of different H. pylori strains, purified recombinant HPGGT or equine kidney GGT (Sigma) were added and the reaction proceeded at 37° C. for 30 min. The release of p-nitroanilide was monitored by spectrophotometry at 405 nm. One unit of activity was defined as the quantity of enzyme that released 1 μmol of p-nitroanilide per min and per mg of protein at 37° C.
This compound acts as an irreversible and competitive inhibitor of GGT. […] Similar results were obtained for recombinant HPGGT (data not shown).

human PBMC = assay: Cell proliferation assay (3H-thymidine incorporation), stimulated PBMC; type: cell-based
Method: Isolation of peripheral blood lymphocytes (PBMC) was performed as described previously^3. All cells were incubated at 37° C. with 5% CO2. Jurkat T cells and PBMC were cultured in RPMI 1640 (Invitrogen, Karlsruhe, Germany) with 10% FCS. EL-4 T cells were cultured in DMEM (Invitrogen) supplemented with 10% horse serum (Cambrex, Verviers, Belgium).
Cells (10^5 PBMC, purified primary T cells or 10^4 Jurkat/EL-4 cells/well) were cultured in 96-well flat-bottom plates in complete medium. PBMC were stimulated in triplicate with PMA (20 ng/ml; Sigma) and Ionomycin (100 ng/ml; Sigma) and all cells were grown with or without indicated total protein concentrations of H. pylori supernatants or recombinant proteins. Primary human T cells were stimulated with either PMA/Ionomycin as described above or with anti-CD3/CD28 beads (Invitrogen) at 1 bead per T cell. Cellular proliferation was determined after 48 h by methyl-[^3H]-thymidine (GE Healthcare) incorporation using a Packard Direct Beta Counter Matrix 9600 (Packard Instruments Co, Downer's Grove, Ill.).

Jurkat T cells [2] = assay: Analysis of apoptosis (Annexin V-FITC/PI, FACS); type: cell-based; settings: 1 μM, 24 h
Method: 5×10^5 Jurkat T cells were treated as indicated. After 24 h cells were harvested by centrifugation, washed, resuspended in 500 μl AnnexinV-binding buffer (10 mM HEPES/NaOH, pH7.4, 140 mM NaCl, 2.5 mM CaCl2) and stained for 10 min each with 5 μl recombinant Annexin V-FITC (Caltag, Burlingame, Calif.) and 0.5 μg/ml PI at room temperature in the dark. Apoptotic cells were measured by FACS analysis (see above). Data were analyzed using Cell Quest software.

HPGGT = assay: Immunization of animals, sera assayed for inhibition of GGT catalytic activity; type: in vivo, Helicobacter pylori; settings: mice, sera taken 6 weeks after immunization
From the text: FIG. 9 is a diagram indicating the inhibitory effect of sera from immunized or infected mice on enzymatic activity of HPGGT. Mice were immunized with the indicated formulations or received PBS as control or were infected with live H. pylori. Sera were taken from tail veins 6 weeks after immunization or infection and assayed for inhibitory activity towards GGT catalytic activity.
as §1

Jurkat T cells [3] = assay: Immunoblotting of cell cycle regulatory and signaling proteins; type: cell-based
Method: For immunoblot analysis 10^7 Jurkat T cells or PBMC were used. Prior to the experiment, Jurkat cells were serum starved for 18 h in medium containing 0.2% FCS. Afterwards, cells were released with 10% FCS and treated as depicted. At the indicated time points, the cells were harvested, washed once with ice-cold PBS, resuspended in 1× lysis buffer (Cell Signaling Technology, Danvers, Mass.) containing protease inhibitors (2.5 mM sodium pyrophosphate, 1 mM β-glycerophosphate, 1 mM Na3VO4, 1 μg/ml leupeptin, 1 mM PMSF; Sigma) and sonicated with a micro tip sonifier on ice for 30 sec. Lysates were centrifuged at 10000×g for 10 min at 4° C. and supernatants were used for immunoblotting. Equal amounts of protein (determined by Bradford assay, BioRad) were separated by Tricine-SDS-PAGE and electrotransferred onto nitrocellulose membranes (BioRad). For detection, membranes were probed with primary antibodies anti-p27, anti-Cyclin D3, anti-Cyclin E, anti-c-Myc (Dianova, Hamburg, Germany), anti-Cdk2 (Santa-Cruz Biotechnology, Heidelberg, Germany), anti-phospho-AKT (Ser 473), anti-phospho-c-Raf (Ser 338), anti-phospho-p70S6K (Thr 389; Cell Signaling), anti-phospho-FKHRL1/Foxo3 (Thr 32; Upstate, Lake Placid, N.Y.), anti-Actin (Sigma) and anti-VacA (Austral Biologicals, San Ramon, Calif.). […] For detection of the large subunit of the HPGGT protein a polyclonal rabbit anti-GGT antibody raised against a synthesized peptide IQPDTVTPSSQIKPGM including amino acid residues 356 to 371 of the HP 1118 gene product (Charles River, Kisslegg, Germany) was used.

[4] = GGT activity assay: catalytic activity of GGT proteins and fractions; type: biochemical
Method: as §1

IL-2 = IL-2 ELISA of PBMC supernatants; type: cell-based, human; settings: PBMC stimulated with PMA and Ionomycin, 24 h, compared to stimulated control
Method: (§2) PBMC (5×10^5 each) were treated for 24 h as depicted. At indicated time points cells were removed by centrifugation and supernatants were analyzed for amounts of IL-2 (eBioscience, San Diego, Calif.) and IFN-γ (Biosource, Solingen, Germany) by ELISA according to the manufacturer's instructions. The lower limits of detection were 4 pg/ml.
(§3) To date so far nothing was known about a role of HPGGT during suppression of the host's immune response. The inhibition of lymphocyte proliferation by HPGGT reported here might result from interference with cytokine secretion of human PBMCs. To test this hypothesis, cells were stimulated with PMA and Ionomycin and incubated with or without H. pylori wild-type and ΔGGT supernatants or recombinant HPGGT at different concentrations for 24 h. […] In addition secretion of IFN-γ was not reduced (FIG. 5B).

IFN-γ = IFN-γ ELISA of PBMC supernatants; type: cell-based, human; settings: PBMC stimulated with PMA and Ionomycin, 24 h
Method: as §2, §3

human PBMCs = assay: Immunoblotting of cell cycle regulatory proteins in PBMC; type: cell-based; settings: 24 h and 48 h
Method: FIG. 6B an SDS PAGE of the proteins obtained from 10^7 PBMC which were incubated with different concentrations of HPWT and HPΔGGTSN or rHPGGT for 24 h and 48 h and subsequently lysed. 35 μg of total protein were separated by SDS-PAGE and analyzed by immunoblotting. Levels of indicated proteins were determined using the corresponding antibodies. Data were reproduced 2 times with similar results. (HP=H. pylori, SN=supernatant, WT=wild-type).
For immunoblot analysis 10^7 Jurkat T cells or PBMC were used. Prior to the experiment, Jurkat cells were serum starved for 18 h in medium containing 0.2% FCS. Afterwards, cells were released with 10% FCS and treated as depicted. At the indicated time points, the cells were harvested, washed once with ice-cold PBS, resuspended in 1× lysis buffer (Cell Signaling Technology, Danvers, Mass.) containing protease inhibitors (2.5 mM sodium pyrophosphate, 1 mM β-glycerophosphate, 1 mM Na3VO4, 1 μg/ml leupeptin, 1 mM PMSF; Sigma) and sonicated with a micro tip sonifier on ice for 30 sec. Lysates were centrifuged at 10000×g for 10 min at 4° C. and supernatants were used for immunoblotting. Equal amounts of protein (determined by Bradford assay, BioRad) were separated by Tricine-SDS-PAGE and electrotransferred onto nitrocellulose membranes (BioRad). […]

[5] = incubation of the HPGGT with acivicin
[6] = preincubation of HPWTSN with acivicin (50 μM) for 2 h at 37° C.

Molecule: N[C@H](C(=O)O)[C@@H]1CC(Cl)=NO1 [acivicin]
- catalytic activity of HPGGT after incubation with acivicin [1, 5]: completely abolishes
- GGT activity of H. pylori wild-type supernatants after pretreatment with acivicin [1, 6]: abrogated; also recorded: completely repressed
- inhibitory effect of the enzyme (HPGGT) towards lymphocytes after incubation with acivicin (human PBMC; [5]): completely abolishes
- inhibition of PBMC proliferation by H. pylori wild-type supernatants after pretreatment with acivicin (human PBMC; [6]): abrogated; also recorded: completely repressed

Molecule: CN[C@@H]1C[C@H]2O[C@@](C)([C@@H]1OC)n1c3ccccc3c3c4c(c5c6ccccc6n2c5c31)C(=O)NC4 [staurosporin, reference compound]
- apoptosis (positive control) (Jurkat T cells [2]): strongly induced apoptosis

Molecule: IQPDTVTPSSQIKPGM [peptide 356-371, peptide of HPGGT residues 356 to 371, far from the catalytic center]
- inhibitory antibodies / inhibitory immune response against HPGGT in serum (HPGGT): No inhibitory immune response

B1: recombinant HPGGT: recombinant His-tagged gamma glutamyl transpeptidase of H. pylori expressed in E. coli (protein, listed as Helicobacter pylori)
chain: MRRSFLKTIGLGVIALFLGLLNPLSAASYPPIKNTKVGLALSSHPLASEIGQKVLEEGGNAIDAAVAIGFALAVVHPAAGNIGGGGFAVIHLANGENVALDFREKAPLKATKNMFLDKQGNVVPKLSEDGYLAAGVPGTVAGMEAMLKKYGTKKLSQLIDPAIKLAENGYAISQRQAETLKEARERFLKYSSSKKYFFKKGHLDYQEGDLFVQKDLAKTLNQIKTLGAKGFYQGQVAELIEKDMKKNGGIITKEDLASYNVKWRKPVVGSYRGYKIISMSPPSSGGTHLIQILNVMENADLSALGYGASKNIHIAAEAMRQAYADRSVYMGDADFVSVPVDKLINKAYAKKIFDTIQPDTVTPSSQIKPGMGQLHEGSNTTHYSVADRWGNAVSVTYTINASYGSAASIDGAGFLLNNEMDDFSIKPGNPNLYGLVGGDANAIEANKRPLSSMSPTIVLKNNKVFLVVGSPGGSRIITTVLQVISNVIDYNMNISEAVSAPRFHMQWLPDELRIEKFGMPADVKDNLTKMGYQIVTKPVMGDVNAIQVLPKTKGSVFYGSTDPRKEF
modifications: His-tag
notes: recombinant His-tagged gamma glutamyl transpeptidase of H. pylori expressed in E. coli
- Cyclin levels (Jurkat T cells [3]; 2 μg/ml): complete reduction
- cellular levels and phosphorylation of AKT, p70S6k and Foxo 3 (PI3K-signaling) (Jurkat T cells [3]; Jurkat T cells and PBMC): not reduced
- cellular levels of c-Myc and phosphorylation of c-Raf (Ras-dependent pathway) (Jurkat T cells [3]; Jurkat T cells and PBMC): reduced
- enzymatic GGT activity ([4]; pH 8.0, 37° C., 30 min): strong GGT activity
- pH range of catalytic activity ([4]; pH of assay buffer varied between 2 and 10): 2-10
- reduction of IL-2 secretion (IL-2): none of these treatments led to reduction
- secretion of IFN-γ (IFN-γ): not reduced
- cell cycle regulating proteins (Cyclin D3, E1) in PBMC (human PBMCs): even stronger reduction
- inhibition of PBMC proliferation (human PBMC; PBMC stimulated with PMA/Ionomycin, 48 h): efficiently inhibited
- inhibitory effect of HPGGT on lymphocyte proliferation in the absence of glutamine (human PBMC; medium without the amino acid glutamine): completely abolished
